Data on two substances can be found in PMC3604778.

Broadly, the Kd is the equilibrium constant for the complex coming apart.

Like-named read-outs stand apart in the source and are kept apart here.

Assay [1] concerns the target SCM expressed on the surface of S. canis G361 (Streptococcus canis (endogenous in strain G361)). Put plainly: radioligand binding.
Assay [2] deals with human plasminogen (human). Put plainly: radioligand binding.
Assay [3] addresses SCM expressed on the surface of S. canis G361 (Streptococcus canis (endogenous in strain G361)). Nature of the assay: radioligand binding. This is another data set of the same source.
The target of assay [4] is human plasminogen (human). Put plainly: SPR. On the technique in general: In SPR one partner is held on a chip, and binding of the other changes the refractive index at the surface.

With “purified recombinant SCM, M-like protein of S. canis (derived from strain G361) (natural protein)”, in assay [1], the percent binding of 125I-SCM to G361 (1 × 10^7 bacteria) worked out at 13.1%, the percent binding of 125I-SCM to G361 (2 × 10^7 bacteria) was 19.3%, the percent binding of 125I-SCM to G361 (4 × 10^6 bacteria) amounted to 6.5% and the percent binding of 125I-SCM to G361 (control without inhibitor) came to 28.7%. Also, in assay [1], the percent binding of 125I-SCM to G361 bacteria was 23.5%, the percent binding of 125I-SCM to G361 left with 1.0 µM nonlabeled SCM worked out at 15.8%, the percent binding of 125I-SCM to G361 left with 10.0 µg nonlabeled SCM was determined as 4.2% and the percent specific binding of 125I-SCM to G361 bacteria worked out at 20.5%. Besides, the percent binding of 125I-plasminogen to G361 left with 1.0 µM nonlabeled SCM in assay [2] stood at 41.3%. Further, in assay [3], the percent binding of 125I-SCM to G361 bacteria came out at 25.7%.
For “recombinant S. canis enolase (strain G361) (from UniProt A0A2D4DNT6 1-435) (enzyme)”, the Kd in assay [4] amounted to 800 nM.
